Experimental data taken from patent publication US20030224453A1, “Structural models for cytoplasmic domains of transmembrane receptors” (priority 1998, published 2003).

Tests used:
filamin (ABP-280) [1] = molecular target: T1, filamin (ABP-280) (Homo sapiens, UniProt P21333); assay: Binding of resin-bound cytoplasmic domain model proteins to purified filamin; parameters: Human uterus filamin (ABP-280) was prepared as a 1.5 mg/ml solution; from tissue; host or cells: human uterus; settings: result in words
Experimental: (§1) Purified recombinant cytoplasmic domain proteins (500 μg) were dissolved in a mixture of 5 ml 20 mM Pipes, 50 mM NaCl, pH 6.8 and 1 ml 0.1 M sodium acetate, pH 3.5 and bound overnight to 80 μl of Ni^2+ saturated His-bind resin (Novagen). […] Resins were washed twice with 20 mM Pipes, 50 mM NaCl, pH 6.8, and stored at 4° C. with 0.1% sodium azide as suspensions with one volume of this buffer. Fifty microliters of such a suspension were added to 4.5 ml of cell lysates which had been diluted tenfold with buffer A containing 0.05% TRITON X-100, 3 mM MgCl2 and protease-inhibitors. After incubation overnight at 4° C., resins were washed five times with this buffer and finally heated in 50 μl of reducing sample buffer for SDS PAGE. Samples were separated on 4-20% SDS polyacrylamide gels (NOVEX) and either stained with Coomassie or transferred to Immobilon P membranes (Amersham Corp., Arlington Hts, Ill.). Membranes were blocked with TBS, 5% nonfat-mild powder and stained with streptavidin-peroxidase (VECTASTAIN) or specific antibodies. Bound peroxidase was detected with an enhanced chemiluminescence kit (Amersham).
Human uterus filamin (ABP-280) was prepared as a 1.5 mg/ml solution in 0.6 M KCl, 0.5 mM ATP, 0.5 mM DTT, 10 mM imidazole, pH 7.5. For binding assays performed as described in Example 5, this solution was diluted 1/12 with buffer A, 0.05% TRITON X-100, 3 mM MgCl2, 2 mg/ml BSA, protease-inhibitors (see Example 5), omitting the 50 mM NaCl (see Example 5), and resins with bound model proteins were added. Washing was performed in this buffer without BSA and with additional 50 mM KCl.
Talin was purified from human platelets in accordance with well known procedures with an additional purification step using chromatography on phosphocellulose and stored at 1 mg/ml in 10 mM NaCl, 50% glycerol. This solution was diluted to either 87 or 17 μg/ml talin with buffer A, 0.05% TRITON X-100, 3 mM MgCl2, 2 mg/ml BSA and protease inhibitors (see Example 5, including 0.1 mM E-64) and processed as indicated in the binding assays with cell lysates. […]
Target sequence in this assay (P21333 whole entry, the tested form may be a part): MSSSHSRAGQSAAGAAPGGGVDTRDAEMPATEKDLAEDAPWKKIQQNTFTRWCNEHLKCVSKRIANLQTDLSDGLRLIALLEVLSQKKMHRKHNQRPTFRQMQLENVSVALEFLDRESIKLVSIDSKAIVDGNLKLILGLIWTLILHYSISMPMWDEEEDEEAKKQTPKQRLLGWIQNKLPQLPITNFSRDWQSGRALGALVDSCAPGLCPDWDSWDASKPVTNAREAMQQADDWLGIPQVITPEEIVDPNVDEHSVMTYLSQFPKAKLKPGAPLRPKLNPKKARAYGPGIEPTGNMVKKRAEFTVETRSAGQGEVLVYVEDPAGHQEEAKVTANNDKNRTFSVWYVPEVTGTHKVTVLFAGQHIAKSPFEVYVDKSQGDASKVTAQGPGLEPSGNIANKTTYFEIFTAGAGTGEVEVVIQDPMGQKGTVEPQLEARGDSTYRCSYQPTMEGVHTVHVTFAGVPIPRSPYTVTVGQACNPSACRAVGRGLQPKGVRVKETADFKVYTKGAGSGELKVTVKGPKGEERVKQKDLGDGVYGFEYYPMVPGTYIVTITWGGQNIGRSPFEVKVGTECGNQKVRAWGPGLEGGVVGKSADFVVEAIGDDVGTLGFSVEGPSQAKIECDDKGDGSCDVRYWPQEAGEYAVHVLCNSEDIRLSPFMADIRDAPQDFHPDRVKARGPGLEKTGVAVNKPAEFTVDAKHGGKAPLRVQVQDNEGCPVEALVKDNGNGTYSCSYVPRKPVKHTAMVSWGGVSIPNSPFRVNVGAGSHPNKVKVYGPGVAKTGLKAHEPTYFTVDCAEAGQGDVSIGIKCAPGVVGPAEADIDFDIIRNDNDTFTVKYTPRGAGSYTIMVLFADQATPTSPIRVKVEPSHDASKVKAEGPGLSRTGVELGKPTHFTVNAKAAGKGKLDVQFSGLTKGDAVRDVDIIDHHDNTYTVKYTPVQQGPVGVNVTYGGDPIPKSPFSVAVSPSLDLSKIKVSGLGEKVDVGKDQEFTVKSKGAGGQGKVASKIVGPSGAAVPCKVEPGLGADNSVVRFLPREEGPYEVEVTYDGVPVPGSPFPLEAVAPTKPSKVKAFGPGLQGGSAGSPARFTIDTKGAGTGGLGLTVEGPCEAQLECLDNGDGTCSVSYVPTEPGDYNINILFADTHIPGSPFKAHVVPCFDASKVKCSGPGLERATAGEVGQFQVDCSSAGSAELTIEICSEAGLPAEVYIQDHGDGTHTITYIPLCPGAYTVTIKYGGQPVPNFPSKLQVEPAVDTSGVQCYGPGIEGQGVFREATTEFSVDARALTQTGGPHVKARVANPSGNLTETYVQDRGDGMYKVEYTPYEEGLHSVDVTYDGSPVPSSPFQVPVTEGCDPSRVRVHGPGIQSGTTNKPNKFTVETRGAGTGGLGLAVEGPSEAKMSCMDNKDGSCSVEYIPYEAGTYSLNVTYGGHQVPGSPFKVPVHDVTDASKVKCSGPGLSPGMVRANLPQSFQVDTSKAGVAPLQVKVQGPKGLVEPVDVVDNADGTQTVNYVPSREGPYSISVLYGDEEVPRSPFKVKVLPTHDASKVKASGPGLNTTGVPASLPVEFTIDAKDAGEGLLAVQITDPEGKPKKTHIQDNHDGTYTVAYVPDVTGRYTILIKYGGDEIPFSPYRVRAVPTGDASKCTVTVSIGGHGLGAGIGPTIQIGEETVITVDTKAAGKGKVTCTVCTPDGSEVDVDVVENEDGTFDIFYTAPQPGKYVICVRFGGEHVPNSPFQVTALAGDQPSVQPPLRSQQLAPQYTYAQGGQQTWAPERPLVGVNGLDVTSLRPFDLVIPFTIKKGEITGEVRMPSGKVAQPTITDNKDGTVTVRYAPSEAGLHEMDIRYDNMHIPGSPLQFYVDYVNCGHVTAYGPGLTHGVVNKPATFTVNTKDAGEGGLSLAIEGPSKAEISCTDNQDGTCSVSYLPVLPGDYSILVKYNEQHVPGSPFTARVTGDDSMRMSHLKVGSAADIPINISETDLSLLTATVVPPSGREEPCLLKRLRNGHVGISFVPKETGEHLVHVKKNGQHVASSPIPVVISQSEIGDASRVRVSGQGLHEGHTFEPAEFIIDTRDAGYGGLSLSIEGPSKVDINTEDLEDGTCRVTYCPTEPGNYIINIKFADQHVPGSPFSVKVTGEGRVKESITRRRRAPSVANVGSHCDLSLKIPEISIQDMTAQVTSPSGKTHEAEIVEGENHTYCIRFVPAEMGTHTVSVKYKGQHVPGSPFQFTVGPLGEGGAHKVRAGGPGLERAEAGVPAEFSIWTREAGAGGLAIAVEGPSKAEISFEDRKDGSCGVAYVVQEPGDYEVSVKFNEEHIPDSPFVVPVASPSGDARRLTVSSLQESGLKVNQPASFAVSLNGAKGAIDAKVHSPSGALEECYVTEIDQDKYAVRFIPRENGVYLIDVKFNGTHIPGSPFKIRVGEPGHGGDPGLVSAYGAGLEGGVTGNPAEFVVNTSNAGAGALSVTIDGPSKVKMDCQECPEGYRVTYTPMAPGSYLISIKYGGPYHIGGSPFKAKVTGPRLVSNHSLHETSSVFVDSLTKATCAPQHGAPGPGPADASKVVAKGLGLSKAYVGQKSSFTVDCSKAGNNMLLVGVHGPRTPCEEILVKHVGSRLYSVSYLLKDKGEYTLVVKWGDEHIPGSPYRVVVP

filamin (ABP-280) [2] = molecular target: T1, filamin (ABP-280); assay: densitometry of Coomassie-stained gels; purified filamin on model protein resin
talin [3] = molecular target: T2, talin (Homo sapiens, UniProt Q9Y490); assay: Binding of resin-bound cytoplasmic domain model proteins to purified talin; parameters: Talin was purified from human platelets in accordance with well known procedures; from tissue; host or cells: human platelets; settings: result in words
Experimental: as §1
Talin was purified from human platelets in accordance with well known procedures with an additional purification step using chromatography on phosphocellulose and stored at 1 mg/ml in 10 mM NaCl, 50% glycerol. […]

filamin = assay: Affinity chromatography of cell lysates on cytoplasmic domain mimics, filamin (240 kDa) detected; format: binding; settings: NHS-biotin-labeled human platelet lysates; result in words
Description: To study possible influences of the structural changes induced by the Gly insertions, protein models were produced having the β1A cytoplasmic domain with one, two and three additional Gly residues inserted after the heptad-repeat motif (G2-, G3-, G4-β1A) and compared with the G1-β1A construct. As an additional control, a variant of the G4-β1A peptide was produced with a Tyr to Ala substitution in the membrane-proximal NPXY-motif (G4-β1A-Y788A) (FIG. 1). This mutation interferes with focal adhesion targeting and activation of integrins. The purified proteins were bound via their N=terminal His-Tag to a Ni^2+−resin and used in affinity chromatography experiments with lysates of NHS-biotin-labeled human platelets. Marked changes in the pattern of protein binding were observed as a consequence of the Gly insertions. Polypeptides migrating at 45, 56, 58, 140 and 240 kDa bound only to the mimics with Gly insertions. […] Using monoclonal antibodies, the 240 kDa and 45 kDa proteins were identified as filamin and actin, respectively. […] Talin bound to the G1- and G4-β1A construct but not to the Y788A-G4β1A construct. Thus, the structural changes in the model induced by the insertion of glycines into the coiled-coil motif and the integrin cytoplasmic domain sequence alter interactions of these proteins with cellular components. […]

talin [4] = molecular target: T2, talin; assay: Affinity chromatography of cell lysates on cytoplasmic domain mimics, talin detected; format: binding; parameters: endogenous in cells; host or cells: human platelets (also Jurkat, HT1080, mouse C2C12 myotubes); settings: NHS-biotin-labeled human platelet lysates; result in words
Description: To study possible influences of the structural changes induced by the Gly insertions, protein models were produced having the β1A cytoplasmic domain with one, two and three additional Gly residues inserted after the heptad-repeat motif (G2-, G3-, G4-β1A) and compared with the G1-β1A construct. As an additional control, a variant of the G4-β1A peptide was produced with a Tyr to Ala substitution in the membrane-proximal NPXY-motif (G4-β1A-Y788A) (FIG. 1). This mutation interferes with focal adhesion targeting and activation of integrins. The purified proteins were bound via their N=terminal His-Tag to a Ni^2+−resin and used in affinity chromatography experiments with lysates of NHS-biotin-labeled human platelets. Marked changes in the pattern of protein binding were observed as a consequence of the Gly insertions. Polypeptides migrating at 45, 56, 58, 140 and 240 kDa bound only to the mimics with Gly insertions. […] Using monoclonal antibodies, the 240 kDa and 45 kDa proteins were identified as filamin and actin, respectively. […] Talin bound to the G1- and G4-β1A construct but not to the Y788A-G4β1A construct. Thus, the structural changes in the model induced by the insertion of glycines into the coiled-coil motif and the integrin cytoplasmic domain sequence alter interactions of these proteins with cellular components. Alterations of the β1A tail that block cytoskeletal interactions, such as the Y788 mutation and β1B- and β1C-splice variants also abrogate binding to talin and filamin. Consequently, the observed in vitro interactions are likely to be biologically relevant.
Human platelets were obtained by centrifugation of freshly drawn blood samples at 1000 rpm for 20 minutes and sedimentation of the resulting platelet-rich plasma at 2600 rpm for 15 minutes. They were washed twice with 0.12 M NaCl, 0.0129 M trisodium citrate, 0.03 M glucose, pH 6.5, and once in Hepes-Saline (3.8 mM Hepes, 137 mM NaCl, 2.7 mM KCl, 5.6 mM D-Glucose, 3.3 mM Na2HPO4, pH 7.3-7.4). […]

talin [5] = molecular target: T2, talin; assay: densitometry of Coomassie-stained gels; purified talin on model protein resin

T2 sequence (Q9Y490 whole entry, the tested form may be a part): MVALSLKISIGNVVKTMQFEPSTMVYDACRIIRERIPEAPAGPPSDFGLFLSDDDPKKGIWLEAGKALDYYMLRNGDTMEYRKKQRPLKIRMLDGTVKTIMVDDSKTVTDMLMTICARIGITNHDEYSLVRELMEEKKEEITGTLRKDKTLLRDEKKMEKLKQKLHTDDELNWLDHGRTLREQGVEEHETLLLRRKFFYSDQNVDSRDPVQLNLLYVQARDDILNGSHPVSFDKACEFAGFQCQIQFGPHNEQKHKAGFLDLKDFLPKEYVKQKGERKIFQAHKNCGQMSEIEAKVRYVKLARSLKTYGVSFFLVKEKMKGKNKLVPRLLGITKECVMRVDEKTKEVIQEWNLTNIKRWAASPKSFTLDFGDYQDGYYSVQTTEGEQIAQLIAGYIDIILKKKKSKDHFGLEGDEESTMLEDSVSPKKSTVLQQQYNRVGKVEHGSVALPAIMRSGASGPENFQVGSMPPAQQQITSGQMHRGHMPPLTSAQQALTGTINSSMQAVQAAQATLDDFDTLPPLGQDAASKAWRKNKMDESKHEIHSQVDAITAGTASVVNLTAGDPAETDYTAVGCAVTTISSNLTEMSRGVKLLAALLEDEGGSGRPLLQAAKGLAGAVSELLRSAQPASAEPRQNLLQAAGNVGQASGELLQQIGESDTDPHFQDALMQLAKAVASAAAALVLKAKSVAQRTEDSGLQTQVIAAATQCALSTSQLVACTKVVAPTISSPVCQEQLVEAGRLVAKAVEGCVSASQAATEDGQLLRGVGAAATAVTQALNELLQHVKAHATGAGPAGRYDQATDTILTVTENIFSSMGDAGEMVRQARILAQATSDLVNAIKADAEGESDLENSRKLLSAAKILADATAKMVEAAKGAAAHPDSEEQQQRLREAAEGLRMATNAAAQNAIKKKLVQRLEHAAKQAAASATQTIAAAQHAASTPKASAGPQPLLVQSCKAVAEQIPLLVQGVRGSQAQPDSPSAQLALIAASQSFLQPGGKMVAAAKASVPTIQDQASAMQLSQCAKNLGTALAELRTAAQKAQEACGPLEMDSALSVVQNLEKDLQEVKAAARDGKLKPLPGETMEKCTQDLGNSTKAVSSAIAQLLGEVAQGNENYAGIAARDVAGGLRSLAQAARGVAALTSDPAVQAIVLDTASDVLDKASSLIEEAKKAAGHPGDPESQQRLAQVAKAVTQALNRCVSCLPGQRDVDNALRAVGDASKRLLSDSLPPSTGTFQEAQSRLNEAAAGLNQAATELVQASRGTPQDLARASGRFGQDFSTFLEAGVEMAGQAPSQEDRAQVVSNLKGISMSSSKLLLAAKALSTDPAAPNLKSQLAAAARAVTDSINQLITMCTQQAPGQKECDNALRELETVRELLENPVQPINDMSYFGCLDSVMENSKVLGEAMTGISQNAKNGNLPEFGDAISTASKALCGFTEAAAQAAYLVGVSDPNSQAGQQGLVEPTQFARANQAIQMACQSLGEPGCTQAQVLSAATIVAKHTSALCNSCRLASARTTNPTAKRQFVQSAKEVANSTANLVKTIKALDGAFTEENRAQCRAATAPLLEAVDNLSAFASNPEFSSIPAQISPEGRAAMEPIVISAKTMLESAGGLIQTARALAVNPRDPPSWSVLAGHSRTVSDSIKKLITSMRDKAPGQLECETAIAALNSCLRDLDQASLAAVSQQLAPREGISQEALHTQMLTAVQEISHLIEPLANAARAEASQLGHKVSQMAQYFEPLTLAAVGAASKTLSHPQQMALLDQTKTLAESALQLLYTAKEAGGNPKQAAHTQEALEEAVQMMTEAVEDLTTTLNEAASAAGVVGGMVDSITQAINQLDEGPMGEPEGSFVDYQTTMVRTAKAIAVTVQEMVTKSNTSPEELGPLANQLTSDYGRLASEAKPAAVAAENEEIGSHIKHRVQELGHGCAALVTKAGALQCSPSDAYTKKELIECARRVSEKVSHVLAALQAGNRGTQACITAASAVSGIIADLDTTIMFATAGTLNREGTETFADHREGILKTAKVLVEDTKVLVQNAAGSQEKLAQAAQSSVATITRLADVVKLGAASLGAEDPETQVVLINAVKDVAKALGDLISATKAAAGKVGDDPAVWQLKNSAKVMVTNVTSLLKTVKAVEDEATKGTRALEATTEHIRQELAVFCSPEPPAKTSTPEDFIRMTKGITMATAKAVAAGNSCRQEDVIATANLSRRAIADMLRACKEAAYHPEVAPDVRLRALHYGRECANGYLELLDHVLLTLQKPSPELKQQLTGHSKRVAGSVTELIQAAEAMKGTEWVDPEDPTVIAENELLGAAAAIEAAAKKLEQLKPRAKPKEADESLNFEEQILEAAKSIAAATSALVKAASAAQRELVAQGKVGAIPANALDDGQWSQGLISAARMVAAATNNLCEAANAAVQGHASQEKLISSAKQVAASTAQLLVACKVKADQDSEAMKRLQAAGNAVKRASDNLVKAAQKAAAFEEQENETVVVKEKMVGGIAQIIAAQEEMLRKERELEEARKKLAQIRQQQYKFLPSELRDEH

binding of purified filamin, comparison between constructs (filamin (ABP-280) [1]) | fold more filamin bound than by the β1A model protein (filamin (ABP-280) [2]) [fold] | binding of purified talin compared to G4-β1A (talin [3]) | talin binding from cell lysates (talin [4]) | fold more talin bound than by the β1A model protein (talin [5]) [fold] | Molecule | filamin (240 kDa) binding from cell lysates (filamin)
bound more filamin than G4-β1A or G4-β1D | 8.4 | – | – | – | β7 construct (G1 or G4 variant not stated) (designed binder, part only; not given: number of added glycines, part only) chain, part: GSSHHHHHHSSGLVPRGSHMKLEALEGRLDALEGKLEALEGKLDALEGKLSVEIYDRREYSRFEKEQQQLNWKQDSNPLYKSAITTTINPRFQEADSPTL | –
functionally reduced | – | functionally reduced | not | – | G4-β1A-Y788A: G4-β1A variant with Tyr to Ala substitution in the membrane-proximal NPXY-motif (protein) GSSHHHHHHSSGLVPRGSHMKLEALEGRLDALEGKLEALEGKLDALEGGGGKLLMIIHDRREFAKFEKEKMNAKWDTGENPIAKSAVTTVVNPKYEGK | suppressed the interaction with the 240 kDa
– | – | – | – | 9 | β1D construct (G1 or G4 variant not stated) (designed binder, part only; not given: number of added glycines, part only) chain, part: GSSHHHHHHSSGLVPRGSHMKLEALEGRLDALEGKLEALEGKLDALEGKLLMIIHDRREFAKFEKEKMNAKWDTQENPIYKSPINNFKNPNYGRKAGL | –
functionally reduced | – | functionally reduced | – | – | G4-β1B: G4 model protein with β1B splice variant cytoplasmic domain (protein) GSSHHHHHHSSGLVPRGSHMKLEALEGRLDALEGKLEALEGKLDALEGGGGKLLMIIHDRREFAKFEKEKMNAKWDTVSYKTSKKQSGL | –
